Measurements taken from US8357656B2, “Natriuretic peptide receptor-C agonists” (Mayo Foundation for Medical Education and Research, priority 2007, dated 2013).

Experiments:
[1] = target: T1, rat NPR-B (Rattus norvegicus, UniProt P16067); assay: cGMP production in HEK293 cells stably expressing rat NPR-B; assay type: cell-based; conditions: stimulated for 3 minutes, cGMP RIA (FIG. 2)
T1 construct: expressed in transfected cells; host or cells: HEK293 (293GCB cells)
T1 sequence (P16067 17-1047): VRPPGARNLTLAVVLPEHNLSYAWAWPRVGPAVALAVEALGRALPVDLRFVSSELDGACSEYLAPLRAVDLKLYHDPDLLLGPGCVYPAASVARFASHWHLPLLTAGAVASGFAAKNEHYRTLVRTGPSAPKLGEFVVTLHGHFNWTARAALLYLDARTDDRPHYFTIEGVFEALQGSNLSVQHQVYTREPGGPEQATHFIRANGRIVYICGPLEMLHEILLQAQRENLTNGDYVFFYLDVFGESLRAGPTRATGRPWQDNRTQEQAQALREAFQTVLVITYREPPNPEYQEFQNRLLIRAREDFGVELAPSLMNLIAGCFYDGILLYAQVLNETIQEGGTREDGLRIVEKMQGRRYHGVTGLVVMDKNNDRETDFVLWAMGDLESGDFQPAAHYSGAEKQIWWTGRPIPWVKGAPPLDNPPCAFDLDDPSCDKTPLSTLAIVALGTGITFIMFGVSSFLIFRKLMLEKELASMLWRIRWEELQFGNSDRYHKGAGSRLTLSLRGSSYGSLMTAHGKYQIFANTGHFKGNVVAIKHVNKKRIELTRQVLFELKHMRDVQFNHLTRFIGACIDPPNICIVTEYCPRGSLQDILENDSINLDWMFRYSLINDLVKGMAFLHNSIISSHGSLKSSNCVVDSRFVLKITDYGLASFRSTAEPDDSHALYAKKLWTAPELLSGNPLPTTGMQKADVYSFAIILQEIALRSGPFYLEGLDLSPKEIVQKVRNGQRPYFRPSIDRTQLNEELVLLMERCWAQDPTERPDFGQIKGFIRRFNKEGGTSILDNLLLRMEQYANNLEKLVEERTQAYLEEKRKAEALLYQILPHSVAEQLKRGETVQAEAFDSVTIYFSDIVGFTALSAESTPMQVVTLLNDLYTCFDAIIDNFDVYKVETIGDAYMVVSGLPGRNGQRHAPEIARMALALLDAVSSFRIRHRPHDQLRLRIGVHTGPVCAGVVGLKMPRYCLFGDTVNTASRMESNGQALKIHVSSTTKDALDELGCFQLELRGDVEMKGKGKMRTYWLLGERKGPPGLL
Experimental: (§1) HEK293 cells stably expressing rat NPR-A or NPR-B were prepared using methods similar to those described elsewhere (Fan et al., Mol. Pharmacol., 67:174-83 (2005); and Bryan and Potter, J. Biol. Chem., 277:16041-16047 (2002)). The cells were maintained in Dulbecco's modified Eagle's medium (DMEM) supplemented with 10% FBS, 100 units/mL penicillin, 100 μg/mL streptomycin, and 200 μg/mL G418. The cells were plated in 48-well plates and grown to 90% confluency. On the day of the assay, the cells were incubated in serum-free medium for 4 hours. The cells were pretreated for 10 minutes at 37° C. in DMEM containing 25 mM HEPES, pH 7.4 and 0.5 mM 1-methyl-3-isobutylxanthine by aspirating the starvation medium. After pretreatment, the medium was replaced with the same medium containing the indicated concentrations of natriuretic peptides. The cells were stimulated for 3 minutes with CNP, rat BNP, human BNP, ASBNP, or ASBNP.1. The reaction was stopped by aspiration of the medium and addition of 200 μL ice-cold 80% ethanol. Cyclic GMP concentrations were estimated from an aliquot of the ethanol extract using a Perkin Elmer cGMP RIA kit without acetylation as described elsewhere (Bryan and Potter, J. Biol. Chem., 277:16041-16047 (2002); and Abbey and Potter, J. Biol. Chem., 277:42423-30 (2002)).

[2] = target: T2, human NPR-C (Homo sapiens, UniProt P17342); assay: Binding to human NPR-C; conditions: FIG. 3
T2 sequence (P17342 27-541): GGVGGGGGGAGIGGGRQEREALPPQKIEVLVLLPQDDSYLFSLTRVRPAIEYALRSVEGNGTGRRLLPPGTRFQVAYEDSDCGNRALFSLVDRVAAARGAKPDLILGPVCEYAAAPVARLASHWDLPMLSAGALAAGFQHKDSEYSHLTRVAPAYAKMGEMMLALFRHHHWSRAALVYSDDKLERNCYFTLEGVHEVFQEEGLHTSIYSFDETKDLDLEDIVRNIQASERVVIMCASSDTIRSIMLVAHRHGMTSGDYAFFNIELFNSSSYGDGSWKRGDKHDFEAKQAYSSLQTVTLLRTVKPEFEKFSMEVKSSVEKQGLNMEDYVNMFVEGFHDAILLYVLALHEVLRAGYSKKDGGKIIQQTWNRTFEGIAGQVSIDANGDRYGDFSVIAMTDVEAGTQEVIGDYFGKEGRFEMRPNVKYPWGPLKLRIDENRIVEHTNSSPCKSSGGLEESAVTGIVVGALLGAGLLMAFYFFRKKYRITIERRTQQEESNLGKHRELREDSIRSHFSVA
Experimental: Human BNP and ASBNP.1 binding to human NPR-C was assessed using methods similar to those described elsewhere (Fan et al., Mol. Pharmacol., 67:174-83 (2005)).

[3] = target: T3, rat NPR-A (Rattus norvegicus, UniProt P18910); assay: cGMP production in HEK293 cells stably expressing rat NPR-A; assay type: cell-based; conditions: stimulated for 3 minutes, cGMP RIA (FIG. 1)
T3 construct: expressed in transfected cells; host or cells: HEK293 (293GCA cells)
T3 sequence (P18910 29-1057): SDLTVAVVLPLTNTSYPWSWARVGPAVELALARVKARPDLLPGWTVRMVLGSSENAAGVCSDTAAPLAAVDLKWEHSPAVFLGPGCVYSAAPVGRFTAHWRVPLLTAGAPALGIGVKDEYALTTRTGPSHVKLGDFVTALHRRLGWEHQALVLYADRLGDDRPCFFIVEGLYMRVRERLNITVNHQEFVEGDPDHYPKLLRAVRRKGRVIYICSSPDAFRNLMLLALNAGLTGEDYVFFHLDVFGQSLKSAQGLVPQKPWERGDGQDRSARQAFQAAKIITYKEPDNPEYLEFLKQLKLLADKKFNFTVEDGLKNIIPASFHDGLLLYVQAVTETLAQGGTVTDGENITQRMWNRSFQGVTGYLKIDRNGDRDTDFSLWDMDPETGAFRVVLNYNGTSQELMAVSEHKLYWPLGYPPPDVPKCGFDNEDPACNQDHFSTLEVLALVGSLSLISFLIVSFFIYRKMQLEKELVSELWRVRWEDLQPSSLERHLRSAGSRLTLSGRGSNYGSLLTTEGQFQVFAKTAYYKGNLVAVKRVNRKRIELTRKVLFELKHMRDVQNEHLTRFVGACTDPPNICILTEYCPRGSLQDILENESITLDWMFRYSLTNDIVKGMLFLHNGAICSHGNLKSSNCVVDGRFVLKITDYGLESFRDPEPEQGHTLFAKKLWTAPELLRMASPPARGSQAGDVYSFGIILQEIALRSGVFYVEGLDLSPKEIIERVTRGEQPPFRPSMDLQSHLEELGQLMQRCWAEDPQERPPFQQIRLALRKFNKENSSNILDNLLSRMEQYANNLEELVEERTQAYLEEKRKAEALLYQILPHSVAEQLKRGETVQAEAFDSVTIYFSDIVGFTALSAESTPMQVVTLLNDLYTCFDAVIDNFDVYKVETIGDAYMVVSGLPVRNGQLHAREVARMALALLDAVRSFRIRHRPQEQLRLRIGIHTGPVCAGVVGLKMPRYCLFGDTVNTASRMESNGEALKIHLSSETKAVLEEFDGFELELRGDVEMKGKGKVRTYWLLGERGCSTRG
Experimental: as §1

Row | Substance | activation of cells expressing rat NPR-B (cGMP) [1] | binding to human NPR-C [2] | activation of cells expressing rat NPR-A (cGMP) [3]
1 | C-type natriuretic peptide [CNP] | activated cells expressing rat NPR-B | – | –
2 | BNP: human BNP, natriuretic polypeptide of myocardial cell origin; main form is a 32 amino acid polypeptide with a ring structure | exhibited little, if any, activity | exhibited binding to human NPR-C | activated cells expressing rat NPR-A at concentrations in the mM range
3 | ASBNP.1: ASBNP.1 polypeptide that is 42 amino acid residues in length (SEQ ID NO:1) (SPKMVQGSGCFGRKMDRISSSSGLGCKGKHPLPPRPPSPIPV) | – | exhibited binding to human NPR-C | did not exhibit any activity
4 | ASBNP.2: ASBNP.2 polypeptide, 60 amino acid residues in length with an alanine at position 43 (SEQ ID NO:3) (SPKMVQGSGCFGRKMDRISSSSGLGCKGKHPLPPRPPSPIPVADTVRVTLGFVVSGNHTL) | exhibited little, if any, activity | – | –
